According to patent US20230227833:

Test system: Reverse transcriptase (RT)
Assay: inhibition
Settings: RNA strand 3' phosphate; DNA strand 3' dideoxy; 37 C; activity fully released at 55 C

TCGAACGGGACGGCTGGCTGTGTGTGT / CCAGCCGTCC [analogs 6+7 (RNA/DNA)]
activity (% residual activity): 16
